Article PMC6232856

Target: rabbit skeletal muscle actin, polymerised (F-actin) (rabbit) (UniProt P68135)
Assay: co-sedimentation

human espin 3A with the USH1M variant p.790_795delRRDLLR, N-terminally 6xHis-tagged (natural protein), sequence (B1AK53 whole entry, stated change not applied): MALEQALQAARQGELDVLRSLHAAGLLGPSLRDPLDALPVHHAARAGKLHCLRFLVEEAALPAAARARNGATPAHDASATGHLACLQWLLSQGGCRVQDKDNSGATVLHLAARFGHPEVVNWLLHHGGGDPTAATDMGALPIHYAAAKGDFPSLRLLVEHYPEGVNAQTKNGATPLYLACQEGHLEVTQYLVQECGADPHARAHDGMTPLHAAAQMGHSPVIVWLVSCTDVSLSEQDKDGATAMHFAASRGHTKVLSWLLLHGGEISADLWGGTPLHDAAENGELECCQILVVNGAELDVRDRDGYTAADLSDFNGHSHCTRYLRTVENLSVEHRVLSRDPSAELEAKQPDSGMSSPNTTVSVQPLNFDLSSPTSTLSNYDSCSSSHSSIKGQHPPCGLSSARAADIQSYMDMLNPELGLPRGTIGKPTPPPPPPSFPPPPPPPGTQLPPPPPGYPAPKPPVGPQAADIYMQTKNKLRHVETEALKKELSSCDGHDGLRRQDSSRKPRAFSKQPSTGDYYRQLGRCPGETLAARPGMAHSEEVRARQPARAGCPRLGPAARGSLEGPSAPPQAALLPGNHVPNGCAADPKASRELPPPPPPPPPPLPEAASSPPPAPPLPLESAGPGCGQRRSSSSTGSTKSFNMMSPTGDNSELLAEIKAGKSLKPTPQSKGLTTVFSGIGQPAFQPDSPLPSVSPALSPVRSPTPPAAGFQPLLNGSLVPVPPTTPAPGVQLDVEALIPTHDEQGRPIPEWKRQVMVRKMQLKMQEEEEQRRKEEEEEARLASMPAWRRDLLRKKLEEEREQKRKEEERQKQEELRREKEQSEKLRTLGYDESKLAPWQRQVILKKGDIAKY

| Substance | percent of espin cosedimented with F-actin |
| --- | --- |
| human espin 3A with the USH1M variant p.790_795delRRDLLR, N-terminally 6xHis-tagged (natural protein) | 15% |
| human espin 3A, wild type, N-terminally 6xHis-tagged (natural protein) | 45% |
